Assay results published in US20160272683A1 (Novo Nordisk, published 2016).
Numbered stars: 1 amine (or outer) side, 2 acyl side, 3 side chain; on linkers, the order of the positions; unused ones are H or OH. Ends that are not written are not given here. * marks the point of attachment. C20 diacid = O=C(O)CCCCCCCCCCCCCCCCCCC(=O)*; C18 diacid = O=C(O)CCCCCCCCCCCCCCCCC(=O)*; γGlu = O=C(O)[C@H](CCC(=O)[*:2])N[*:1]; AEEA = NCCOCCOCC(=O)O

T1: human calcitonin receptor (human, UniProt P30988 25-474)
T1 construct: whole, on cells; also called hCT-R; hCTR
T1 sequence (looked up): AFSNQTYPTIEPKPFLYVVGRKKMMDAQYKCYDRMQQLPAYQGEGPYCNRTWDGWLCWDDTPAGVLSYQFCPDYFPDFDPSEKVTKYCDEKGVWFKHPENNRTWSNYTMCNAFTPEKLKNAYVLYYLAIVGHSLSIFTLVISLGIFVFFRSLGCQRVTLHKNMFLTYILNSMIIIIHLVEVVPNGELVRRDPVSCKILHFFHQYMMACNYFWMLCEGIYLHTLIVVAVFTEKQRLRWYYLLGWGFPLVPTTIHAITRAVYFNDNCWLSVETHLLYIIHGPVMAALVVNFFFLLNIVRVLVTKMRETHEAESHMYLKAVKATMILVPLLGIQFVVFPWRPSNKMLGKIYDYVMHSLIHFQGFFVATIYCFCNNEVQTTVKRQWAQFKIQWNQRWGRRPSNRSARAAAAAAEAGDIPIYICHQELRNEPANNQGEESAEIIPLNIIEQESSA


Target: T1, human calcitonin receptor
Experiment: whole-cell competition vs 125I-human calcitonin (Assay VIIa)
How it was run: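 BHK tk'ts 13 cells stably co-expressing human calcitonin receptor and a CRE-luciferase reporter, seeded overnight at 37 °C. Bound tracer counted by scintillation after cold HBSS washes and NaOH/SDS lysis; IC₅₀ from one-site competition fit taken as receptor affinity.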

IC50 [nM] | Binder
3.6 | {C20 diacid-γGlu}-ASELSTAALGRLSAELHELATYPRTETGSGSPG-OH (SMILES CC(C)C[C@H](NC(=O)[C@H](C)NC(=O)[C@H](C)NC(=O)[C@@H](NC(=O)[C@H](CO)NC(=O)[C@H](CC(C)C)NC(=O)[C@H](CCC(=O)O)NC(=O)[C@H](CO)NC(=O)[C@H](C)NC(=O)CC[C@H](NC(=O)CCCCCCCCCCCCCCCCCCC(=O)O)C(=O)O)[C@@H](C)O)C(=O)NCC(=O)N[C@@H](CCCNC(=N)N)C(=O)N[C@@H](CC(C)C)C(=O)N[C@@H](CO)C(=O)N[C@@H](C)C(=O)N[C@@H](CCC(=O)O)C(=O)N[C@@H](CC(C)C)C(=O)N[C@@H](Cc1c[nH]cn1)C(=O)N[C@@H](CCC(=O)O)C(=O)N[C@@H](CC(C)C)C(=O)N[C@@H](C)C(=O)N[C@H](C(=O)N[C@@H](Cc1ccc(O)cc1)C(=O)N1CCC[C@H]1C(=O)N[C@@H](CCCNC(=N)N)C(=O)N[C@H](C(=O)N[C@@H](CCC(=O)O)C(=O)N[C@H](C(=O)NCC(=O)N[C@@H](CO)C(=O)NCC(=O)N[C@@H](CO)C(=O)N1CCC[C@H]1C(=O)NCC(=O)O)[C@@H](C)O)[C@@H](C)O)[C@@H](C)O, also called Ex. #89) [[N-terminal(C20 diacid-gGlu), des1, 23Y, 30S, 31G, 34G, C-terminal(-)]mimylin]
6.84 | {C20 diacid-γGlu}-ASELSTAALGRLSAELHELATYPRTETGSGSPK-OH (SMILES CC(C)C[C@H](NC(=O)[C@H](C)NC(=O)[C@H](C)NC(=O)[C@@H](NC(=O)[C@H](CO)NC(=O)[C@H](CC(C)C)NC(=O)[C@H](CCC(=O)O)NC(=O)[C@H](CO)NC(=O)[C@H](C)NC(=O)CC[C@H](NC(=O)CCCCCCCCCCCCCCCCCCC(=O)O)C(=O)O)[C@@H](C)O)C(=O)NCC(=O)N[C@@H](CCCNC(=N)N)C(=O)N[C@@H](CC(C)C)C(=O)N[C@@H](CO)C(=O)N[C@@H](C)C(=O)N[C@@H](CCC(=O)O)C(=O)N[C@@H](CC(C)C)C(=O)N[C@@H](Cc1c[nH]cn1)C(=O)N[C@@H](CCC(=O)O)C(=O)N[C@@H](CC(C)C)C(=O)N[C@@H](C)C(=O)N[C@H](C(=O)N[C@@H](Cc1ccc(O)cc1)C(=O)N1CCC[C@H]1C(=O)N[C@@H](CCCNC(=N)N)C(=O)N[C@H](C(=O)N[C@@H](CCC(=O)O)C(=O)N[C@H](C(=O)NCC(=O)N[C@@H](CO)C(=O)NCC(=O)N[C@@H](CO)C(=O)N1CCC[C@H]1C(=O)N[C@@H](CCCCN)C(=O)O)[C@@H](C)O)[C@@H](C)O)[C@@H](C)O, also called Ex. #90) [[N-terminal(C20 diacid-gGlu), des1, 23Y, 30S, 31G, 34K, C-terminal(-)]mimylin]
1.57 | {C20 diacid-γGlu}-EAASELSTAALGRLSAELHELATYPRTETGSGSP-NH2 (SMILES CC(C)C[C@H](NC(=O)[C@H](C)NC(=O)[C@H](C)NC(=O)[C@@H](NC(=O)[C@H](CO)NC(=O)[C@H](CC(C)C)NC(=O)[C@H](CCC(=O)O)NC(=O)[C@H](CO)NC(=O)[C@H](C)NC(=O)[C@H](C)NC(=O)[C@H](CCC(=O)O)NC(=O)CC[C@H](NC(=O)CCCCCCCCCCCCCCCCCCC(=O)O)C(=O)O)[C@@H](C)O)C(=O)NCC(=O)N[C@@H](CCCNC(=N)N)C(=O)N[C@@H](CC(C)C)C(=O)N[C@@H](CO)C(=O)N[C@@H](C)C(=O)N[C@@H](CCC(=O)O)C(=O)N[C@@H](CC(C)C)C(=O)N[C@@H](Cc1c[nH]cn1)C(=O)N[C@@H](CCC(=O)O)C(=O)N[C@@H](CC(C)C)C(=O)N[C@@H](C)C(=O)N[C@H](C(=O)N[C@@H](Cc1ccc(O)cc1)C(=O)N1CCC[C@H]1C(=O)N[C@@H](CCCNC(=N)N)C(=O)N[C@H](C(=O)N[C@@H](CCC(=O)O)C(=O)N[C@H](C(=O)NCC(=O)N[C@@H](CO)C(=O)NCC(=O)N[C@@H](CO)C(=O)N1CCC[C@H]1C(N)=O)[C@@H](C)O)[C@@H](C)O)[C@@H](C)O, also called Ex. #83) [[N-terminal(C20 diacid-gGlu), -1E, 1A, 23Y, 30S, 31G]mimylin]
2.6 | {C20 diacid-γGlu}-ASELSTAALGRLSAELHELATLPRTETGSGSS-NH2 (SMILES CC(C)C[C@H](NC(=O)[C@H](C)NC(=O)[C@H](C)NC(=O)[C@@H](NC(=O)[C@H](CO)NC(=O)[C@H](CC(C)C)NC(=O)[C@H](CCC(=O)O)NC(=O)[C@H](CO)NC(=O)[C@H](C)NC(=O)CC[C@H](NC(=O)CCCCCCCCCCCCCCCCCCC(=O)O)C(=O)O)[C@@H](C)O)C(=O)NCC(=O)N[C@@H](CCCNC(=N)N)C(=O)N[C@@H](CC(C)C)C(=O)N[C@@H](CO)C(=O)N[C@@H](C)C(=O)N[C@@H](CCC(=O)O)C(=O)N[C@@H](CC(C)C)C(=O)N[C@@H](Cc1c[nH]cn1)C(=O)N[C@@H](CCC(=O)O)C(=O)N[C@@H](CC(C)C)C(=O)N[C@@H](C)C(=O)N[C@H](C(=O)N[C@@H](CC(C)C)C(=O)N1CCC[C@H]1C(=O)N[C@@H](CCCNC(=N)N)C(=O)N[C@H](C(=O)N[C@@H](CCC(=O)O)C(=O)N[C@H](C(=O)NCC(=O)N[C@@H](CO)C(=O)NCC(=O)N[C@@H](CO)C(=O)N[C@@H](CO)C(N)=O)[C@@H](C)O)[C@@H](C)O)[C@@H](C)O, also called Ex. #63) [[N-terminal(C20 diacid-gGlu), des1, 30S, 31G, 33S]mimylin]
15.3 | ASELTTAVLGRLSAELHELATLPRTETGTGTP-NH2 (backbone without side chain; also called Ex. #95bb; 95bb) [[des1, 6T, 9V, 30T, 31G, 32T]mimylin]
1.08 | {C20 diacid-γGlu}-ASELSTAALGRLSAELHELATLPRTETGTGTP-NH2 (SMILES CC(C)C[C@H](NC(=O)[C@H](C)NC(=O)[C@H](C)NC(=O)[C@@H](NC(=O)[C@H](CO)NC(=O)[C@H](CC(C)C)NC(=O)[C@H](CCC(=O)O)NC(=O)[C@H](CO)NC(=O)[C@H](C)NC(=O)CC[C@H](NC(=O)CCCCCCCCCCCCCCCCCCC(=O)O)C(=O)O)[C@@H](C)O)C(=O)NCC(=O)N[C@@H](CCCNC(=N)N)C(=O)N[C@@H](CC(C)C)C(=O)N[C@@H](CO)C(=O)N[C@@H](C)C(=O)N[C@@H](CCC(=O)O)C(=O)N[C@@H](CC(C)C)C(=O)N[C@@H](Cc1c[nH]cn1)C(=O)N[C@@H](CCC(=O)O)C(=O)N[C@@H](CC(C)C)C(=O)N[C@@H](C)C(=O)N[C@H](C(=O)N[C@@H](CC(C)C)C(=O)N1CCC[C@H]1C(=O)N[C@@H](CCCNC(=N)N)C(=O)N[C@H](C(=O)N[C@@H](CCC(=O)O)C(=O)N[C@H](C(=O)NCC(=O)N[C@H](C(=O)NCC(=O)N[C@H](C(=O)N1CCC[C@H]1C(N)=O)[C@@H](C)O)[C@@H](C)O)[C@@H](C)O)[C@@H](C)O)[C@@H](C)O, also called Ex. #74) [[N-terminal(C20 diacid-gGlu), des1, 30T, 31G, 32T]mimylin]
62.9 | ASELTTAVLGRLEAELHELTTLPRTETGTGTP-NH2 (backbone without side chain) [[des1, 6T, 9V, 14E, 21T, 30T, 31G, 32T]mimylin]
4.53 | ASELSTAALGHLSAELHELATLPRTETGSGSP-NH2 (backbone without side chain; also called Ex. #72bb; 72bb) [[des1, 12H, 30S, 31G]mimylin]
0.52 | ASEVSTAVLGRLSAELHELATLPRTETGSGSP-NH2 (backbone without side chain; also called Ex. #86bb; 86bb) [[des1, 5V, 9V, 30S, 31G]mimylin]
0.3 | {C18 diacid-γGlu-AEEA-AEEA}-ASGLSTAVLGRLSQELHELQTYPRTETGSGTY-NH2 (SMILES CC(C)C[C@H](NC(=O)CNC(=O)[C@H](CO)NC(=O)[C@H](C)NC(=O)COCCOCCNC(=O)COCCOCCNC(=O)CC[C@H](NC(=O)CCCCCCCCCCCCCCCCC(=O)O)C(=O)O)C(=O)N[C@@H](CO)C(=O)N[C@H](C(=O)N[C@@H](C)C(=O)N[C@H](C(=O)N[C@@H](CC(C)C)C(=O)NCC(=O)N[C@@H](CCCNC(=N)N)C(=O)N[C@@H](CC(C)C)C(=O)N[C@@H](CO)C(=O)N[C@@H](CCC(N)=O)C(=O)N[C@@H](CCC(=O)O)C(=O)N[C@@H](CC(C)C)C(=O)N[C@@H](Cc1c[nH]cn1)C(=O)N[C@@H](CCC(=O)O)C(=O)N[C@@H](CC(C)C)C(=O)N[C@@H](CCC(N)=O)C(=O)N[C@H](C(=O)N[C@@H](Cc1ccc(O)cc1)C(=O)N1CCC[C@H]1C(=O)N[C@@H](CCCNC(=N)N)C(=O)N[C@H](C(=O)N[C@@H](CCC(=O)O)C(=O)N[C@H](C(=O)NCC(=O)N[C@@H](CO)C(=O)NCC(=O)N[C@H](C(=O)N[C@@H](Cc1ccc(O)cc1)C(N)=O)[C@@H](C)O)[C@@H](C)O)[C@@H](C)O)[C@@H](C)O)C(C)C)[C@@H](C)O, also called Ex. #121) [[N-terminal(C18 diacid-gGlu-2xOEG), des1, 4G, 9V, 15Q, 21Q, 23Y, 30S, 31G, 32T, 33Y]mimylin]
0.747 | {C20 diacid}-ASGLSTAALGRLSQELHELQTYPRTETGSGTY-NH2 (SMILES CC(C)C[C@H](NC(=O)CNC(=O)[C@H](CO)NC(=O)[C@H](C)NC(=O)CCCCCCCCCCCCCCCCCCC(=O)O)C(=O)N[C@@H](CO)C(=O)N[C@H](C(=O)N[C@@H](C)C(=O)N[C@@H](C)C(=O)N[C@@H](CC(C)C)C(=O)NCC(=O)N[C@@H](CCCNC(=N)N)C(=O)N[C@@H](CC(C)C)C(=O)N[C@@H](CO)C(=O)N[C@@H](CCC(N)=O)C(=O)N[C@@H](CCC(=O)O)C(=O)N[C@@H](CC(C)C)C(=O)N[C@@H](Cc1c[nH]cn1)C(=O)N[C@@H](CCC(=O)O)C(=O)N[C@@H](CC(C)C)C(=O)N[C@@H](CCC(N)=O)C(=O)N[C@H](C(=O)N[C@@H](Cc1ccc(O)cc1)C(=O)N1CCC[C@H]1C(=O)N[C@@H](CCCNC(=N)N)C(=O)N[C@H](C(=O)N[C@@H](CCC(=O)O)C(=O)N[C@H](C(=O)NCC(=O)N[C@@H](CO)C(=O)NCC(=O)N[C@H](C(=O)N[C@@H](Cc1ccc(O)cc1)C(N)=O)[C@@H](C)O)[C@@H](C)O)[C@@H](C)O)[C@@H](C)O)[C@@H](C)O) [[N-terminal(C20 diacid), des1, 4G, 15Q, 21Q, 23Y, 30S, 31G, 32T, 33Y]mimylin]
